Laboratory results: patent US20180142030A1 (Bristol-Myers Squibb, published 2018)

Assays:
FcγRIIb = target: T1, FcγRIIb (human, UniProt P31994 43-217, limits assumed); experiment: BLI (ForteBio Octet), %Rmax at 1 µM hCD32b/FcγRIIb
T1 construct: Construct not described; also called hCD32b/FcγRIIb
T1 sequence (looked up): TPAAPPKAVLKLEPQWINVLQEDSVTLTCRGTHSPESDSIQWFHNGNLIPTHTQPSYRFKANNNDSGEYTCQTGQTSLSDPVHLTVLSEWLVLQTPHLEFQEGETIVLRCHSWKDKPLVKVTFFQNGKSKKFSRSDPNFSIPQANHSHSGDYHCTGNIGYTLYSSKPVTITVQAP
Experimental: (§1) See Example 8. Antibody names including “-sup” represent supernatants from antibody producing cells, whereas others are purified antibodies. Data are presented as percentages of a maximum receptor binding value for each combination of antibody and receptor, as measured in a ForteBio Octet system. See, e.g., Example 3. Each cluster of three bars represents, from left to right, binding to hCD32a/FcγRIIa-H131 (10 μM) (hatched bars), […] (10 μM) (black bars), and hCD32b/FcγRIIb (1 μM) (white bars).
(§2) Supernatants were obtained from cells expressing these antibodies and assayed for binding to hCD32/FcγRII. Selected purified antibodies without mutations at position 270 were used as controls.

FcγRIIa-R131 = target: T2, FcγRIIa-R131 (human, UniProt P12318 34-218, limits assumed); experiment: BLI (ForteBio Octet), %Rmax at 10 µM FcγRIIa-R131 (CD32a-R131 on the sheet)
T2 construct: Construct not described
T2 sequence (looked up): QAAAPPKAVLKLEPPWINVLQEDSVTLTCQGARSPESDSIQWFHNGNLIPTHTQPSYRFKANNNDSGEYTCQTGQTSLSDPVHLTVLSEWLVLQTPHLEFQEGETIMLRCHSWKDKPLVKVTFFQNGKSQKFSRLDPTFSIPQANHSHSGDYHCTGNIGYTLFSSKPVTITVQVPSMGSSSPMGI
Experimental: as §1, §2

[1] = target: T3, recombinant human CD40 monomer (human, UniProt P25942 21-193); experiment: BLI (Octet RED); antibody supernatant captured on protein A sensors, huCD40-monomer in solution
T3 construct: also called huCD40-monomer; soluble human CD40
T3 sequence (P25942 21-193 limits assumed): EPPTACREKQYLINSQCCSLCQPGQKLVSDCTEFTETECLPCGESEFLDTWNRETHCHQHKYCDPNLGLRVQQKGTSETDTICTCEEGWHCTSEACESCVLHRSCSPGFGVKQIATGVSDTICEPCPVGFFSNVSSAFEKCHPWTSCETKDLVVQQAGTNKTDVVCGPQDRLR
From the text: The closest matching human germline region sequence was selected for each mouse variable domain, and these human framework regions were used to replace murine frameworks in the “CDR graft” versions of the antibodies. Additional amino acid substitutions, such as framework back-mutations, were then made as necessary to restore the binding affinity of the humanized antibody. Further amino acid substitutions were made to eliminate sequence liabilities. The sequence relationships between the various forms of the antibodies of the present invention are provided at Table 6. The binding of various agonistic anti-huCD40 antibodies to soluble human CD40 was determined by Biolayer Interferometry (BLI) analysis using a Fortebio Octet RED (Rapid system—Extended Detection) label-free interaction analysis instrument. All studies were performed in 10 mM NaₓPO₄, 130 mM NaCl, 0.05% Surfactant P20 (pH 7.1) at 25° C. Briefly, anti-huCD40 antibody supernatants (diluted to 10 μg/ml or captured undiluted if supernatant concentration was less than 10 μg/ml) were captured on protein A coated biosensors (Pall Fortebio #18-5010) using a loading time of 90 s and shake speed of 1000 rpm. Supernatants were first screened for binding to 1 μM recombinant human CD40 monomer (huCD40-monomer) using 180 s association and dissociation times, at 1000 rpm, with two 15 s conditioning steps using 10 mM glycine pH 1.5 in between binding cycles.

| Binder | binding result (FcγRIIb) | binding result (FcγRIIa-R131) | Kd [1] | binding result [1] |
| --- | --- | --- | --- | --- |
| 5F11-45 V4 D270E (antibody, human IgG1, kappa, also called 5F11-45 D270E V4) heavy: QVQLVQSGAEVKKPGSSVKVSCKASGYTFTDLSMHWVRQAPGQGLEWMGYITPSSGYTAYNQKFKGKTTLTADKSTSTAYMELSSLRSEDTAVYYCARLILQRGAYWGQGTLVTVSSASTKGPSVFPLAPSSKSTSGGTAALGCLVKDYFPEPVTVSWNSGALTSGVHTFPAVLQSSGLYSLSSVVTVPSSSLGTQTYICNVNHKPSNTKVDKRVEPKSCDKTHTCPPCPAPELLGGDSVFLFPPKPKDTLMISRTPEVTCVVVDVSHEEGEVKFNWYVDGVEVHNAKTKPREEQYNSTYRVVSVLTVLHQDWLNGKEYKCKVSNKALPAPIEKTISKAKGQPREPQVYTLPPSREEMTKNQVSLTCLVKGFYPSDIAVEWESNGQPENNYKTTPPVLDSDGSFFLYSKLTVDKSRWQQGNVFSCSVMHEALHNHYTQKSLSLSPG light: DIVLTQSPDSLAVSLGERATINCRASKNVDSYGNSFMHWYQQKPGQPPKLLIYRASNLESGVPDRFSGSGSGTDFTLTISSLQAEDVAVYYCQQSNEDPLTFGQGTKLEIKRTVAAPSVFIFPPSDEQLKSGTASVVCLLNNFYPREAKVQWKVDNALQSGNSQESVTEQDSKDSTYSLSSTLTLSKADYEKHKVYACEVTHQGLSSPVTKSFNRGEC | binds | binds | – | – |
| 5F11-45-V9-DT-sup (antibody, human IgG1, kappa, Tested as supernatant of antibody-producing cells; also called 5F11-45 V9 D270T) heavy chain: QVQLVQSGAEVKKPGSSVKVSCKASGYTFTDLSMHWVRQAPGQGLEWMGYITPSSGYTAYNQKFKGKTTLTADKSTSTAYMELSSLRSEDTAVYYCARLILQRGAYWGQGTLVTVSSASTKGPSVFPLAPSSKSTSGGTAALGCLVKDYFPEPVTVSWNSGALTSGVHTFPAVLQSSGLYSLSSVVTVPSSSLGTQTYICNVNHKPSNTKVDKRVEPKSCDKTHTCPPCPAPELLGDDSVFLFPPKPKDTLMISRTPEVTCVVVDVSHETGEVKFNWYVDGVEVHNAKTKPREEQYNSTYRVVSVLTVLHQDWLNGKEYKCKVSNKALPRPIEKTISKAKGQPREPQVYTLPPSREEMTKNQVSLTCLVKGFYPSDIAVEWESNGQPENNYKTTPPVLDSDGSFFLYSKLTVDKSRWQQGNVFSCSVMHEALHNHYTQKSLSLSPG light chain: DIVLTQSPDSLAVSLGERATINCRASKNVDSYGNSFMHWYQQKPGQPPKLLIYRASNLESGVPDRFSGSGSGTDFTLTISSLQAEDVAVYYCQQSNEDPLTFGQGTKLEIKRTVAAPSVFIFPPSDEQLKSGTASVVCLLNNFYPREAKVQWKVDNALQSGNSQESVTEQDSKDSTYSLSSTLTLSKADYEKHKVYACEVTHQGLSSPVTKSFNRGEC | binds | binds | – | – |
| 8E8-67 (antibody, human IgG1, kappa, V domains shown, Humanized; IgG1f) VH: QVQFVQSGAEVKKPGSSVKVSCKASGYTFTSYWMQWVRQAPGQGLEWMGTIYPGDGDSRYNQKFKGKALLTADKSTSTAYMELSSLRSEDTAVYYCARFSLYEGYPYYFDYWGQGTTVTVSS VL: DIVMTQSPLSLPVTPGEPASISCRSSQSLVHRNANTYLHWYLQKPGQSPQLLIYRVSNRFSGVPDRFSGSGSGTDFTLKISRVEAEDVGVYYCSQSTHFPYTFGGGTKVEIKR | – | – | 28 nM | – |
| 8E8-71 (antibody, human IgG1, kappa, V domains shown, Humanized; IgG1f) VH: QVQFVQSGAEVKKPGSSVKVSCKASGYTFTSYWMQWVRQAPGQGLEWMGTIYPGDSDSRYNQKFKGKALLTADKSTSTAYMELSSLRSEDTAVYYCARFSLYEGYPYYFDYWGQGTTVTVSS VL: DIVMTQSPLSLPVTPGEPASISCRSSQSLVHRNANTYLHWYLQKPGQSPQLLIYRVSNRFSGVPDRFSGSGSGTDFTLKISRVEAEDVGVYYCSQSTHFPYTFGGGTKVEIKR | – | – | – | binds |
| 8E8-70 (antibody, human IgG1, kappa, V domains shown, Humanized; IgG1f) VH: QVQFVQSGAEVKKPGSSVKVSCKASGYTFTSYWMQWVRQAPGQGLEWMGTIYPGDSDSRYNQKFKGKALLTADKSTSTAYMELSSLRSEDTAVYYCARFSLYEGYPYYFDYWGQGTTVTVSS VL: DIVMTQSPLSLPVTPGEPASISCRSSQSLVHRNGNTYLHWYLQKPGQSPQLLIYRVSNRFSGVPDRFSGSGSGTDFTLKISRVEAEDVGVYYCSQSTHFPYTFGGGTKVEIKR | – | – | – | binds |
| 12D6-24 V4 D270E (antibody, human IgG1, kappa) heavy: QVQLVQSGAEVKKPGASVKVSCKASGYTFTGYNMNWVRQAPGQGLEWMGNIDPYYGNTNYNQKFKGRVTMTTDTSTSTAYMELRSLRSDDTAVYYCARLGLQLYALDYWGQGTTVTVSSASTKGPSVFPLAPSSKSTSGGTAALGCLVKDYFPEPVTVSWNSGALTSGVHTFPAVLQSSGLYSLSSVVTVPSSSLGTQTYICNVNHKPSNTKVDKRVEPKSCDKTHTCPPCPAPELLGGDSVFLFPPKPKDTLMISRTPEVTCVVVDVSHEEGEVKFNWYVDGVEVHNAKTKPREEQYNSTYRVVSVLTVLHQDWLNGKEYKCKVSNKALPAPIEKTISKAKGQPREPQVYTLPPSREEMTKNQVSLTCLVKGFYPSDIAVEWESNGQPENNYKTTPPVLDSDGSFFLYSKLTVDKSRWQQGNVFSCSVMHEALHNHYTQKSLSLSPG light: DIVMTQTPLSLPVTPGEPASISCRSSQSLVHSNANTYLHWYLQKPGQSPQLLIYKLTNRFFGVPDRFSGSGSGTDFTLKISRVEAEDVGVYYCSQSIHVPWTFGGGTKVEIKRTVAAPSVFIFPPSDEQLKSGTASVVCLLNNFYPREAKVQWKVDNALQSGNSQESVTEQDSKDSTYSLSSTLTLSKADYEKHKVYACEVTHQGLSSPVTKSFNRGEC | binds | binds | – | – |
| 12D6-24-V9-DT-sup (antibody, Tested as supernatant of antibody-producing cells; also called 12D6-24 V9 D270T; copies: 2 + 2) heavy: QVQLVQSGAEVKKPGASVKVSCKASGYTFTGYNMNWVRQAPGQGLEWMGNIDPYYGNTNYNQKFKGRVTMTTDTSTSTAYMELRSLRSDDTAVYYCARLGLQLYALDYWGQGTTVTVSSASTKGPSVFPLAPSSKSTSGGTAALGCLVKDYFPEPVTVSWNSGALTSGVHTFPAVLQSSGLYSLSSVVTVPSSSLGTQTYICNVNHKPSNTKVDKRVEPKSCDKTHTCPPCPAPELLGDDSVFLFPPKPKDTLMISRTPEVTCVVVDVSHETGEVKFNWYVDGVEVHNAKTKPREEQYNSTYRVVSVLTVLHQDWLNGKEYKCKVSNKALPRPIEKTISKAKGQPREPQVYTLPPSREEMTKNQVSLTCLVKGFYPSDIAVEWESNGQPENNYKTTPPVLDSDGSFFLYSKLTVDKSRWQQGNVFSCSVMHEALHNHYTQKSLSLSPG light: DIVMTQTPLSLPVTPGEPASISCRSSQSLVHSNANTYLHWYLQKPGQSPQLLIYKLTNRFFGVPDRFSGSGSGTDFTLKISRVEAEDVGVYYCSQSIHVPWTFGGGTKVEIKRTVAAPSVFIFPPSDEQLKSGTASVVCLLNNFYPREAKVQWKVDNALQSGNSQESVTEQDSKDSTYSLSSTLTLSKADYEKHKVYACEVTHQGLSSPVTKSFNRGEC | binds | binds | – | – |
